# Data reported in US20220251148A1.
# Biological target: purified MHC (MHC II molecules purified by affinity chromatography)
# Assay: competition with a radiolabelled known MHC binding peptide for purified MHC
row,IC50 [µM],Binder
1,2.99,"PYPHPRLPYTQPQPF [P3c (SEQ ID NO: 46), modified alpha gliadin 15-mer peptide]"
2,1.99,"PYSQPESPYMQPQPF [P3d (SEQ ID NO: 47), modified alpha gliadin 15-mer peptide]"
3,11.2,"LQLQPFWQPKLPGPQ [P1g (SEQ ID NO: 38), modified alpha gliadin 15-mer peptide]"
4,5.44,"LQLQPFDQPRLPWPQ [P1f (SEQ ID NO: 37), modified alpha gliadin 15-mer peptide]"
5,0.879,"PYPHPWLRGPQPQPF [P3f (SEQ ID NO: 48), modified alpha gliadin 15-mer peptide]"
6,3.75,"KLPYPQGRLPGPQPQ [P2g (SEQ ID NO: 43), modified alpha gliadin 15-mer peptide]"
